The values below come from US20240409645A1 (DUALYX, published 2024).

Changes are numbered by the printed parent chain.

B1: FJ1427_P035MP05E11 (VHH)
VHH: EVQLVESGGGSVQAGGSLRLSCAASGRTLYSSYGMAWFRQAPGKERDFVGSISRYGTYTSYADSVKDRFTISRDNAKSTVYLQMNNTKPEDTAVYYCAAYTYSGSFYSTVKTHRDEYQYWGQGTQVTVSS
notes: periplasmic extract; also called clone nr
B2: FJ1427_P035MP05C07 (VHH)
VHH: B1 VHH with E1Q, A23E, Y30F, A36G, D47E, S51A, Y55F, S64P, R114H, Q118R
notes: periplasmic extract; also called 92-MP05C07
B3: FJ1427_P035MP05A07 (VHH)
VHH: B1 VHH with E1Q, S11L, V12A, G16A, D67G
notes: as for B1
B4: FJ1427_P035MP05C04 (VHH)
VHH: B1 VHH with A23E, Y30F, A36G, D47E, S51A, Y55F, S64P, R114H, Q118R
notes: periplasmic extract; also called clone nr; 411
B5: FJ1427_P035MP05E03 (VHH)
VHH: B1 VHH with S11L
notes: as for B1
B6: FJ1427_P035MP01F07 (VHH)
VHH: QVQLVESGGGLVQAGGSLRLSCAATGLTFRQHNMGWFRRAPGKEREFVAAISWNVGSTYFADSVKGRFTISRDNGKNMVYLQMNSLKPEDTAVYYCAADNIPLASDMRATATAYGYWGQGTQVTVSS
notes: periplasmic extract; also called clone nr; 54
B7: FJ1427_P035MP05E08 (VHH)
VHH: EVQLVESGGGSVQAGGSLRLSCEASGPTLFSSYGMGWFRQAPGKKEREFVGAISRYGTYTSYADPVKDRFTISRDNAKSTVYLQMNNTKPEDTAVYYCAAYTYSGSFYSTVKTHHDEYHYWGQGTQVTVSS
notes: as for B1
B8: FJ1427_P035MP05D11 (VHH)
VHH: B7 VHH with E1Q, F70L, D75G
notes: as for B1
B9: FJ1427_P035MP05B07 (VHH)
VHH: QLQLVESGGGLVQAGGSLRLSCAASGLTFDGYAIGWFRQASGKEREGVSYINGRDGSTFYADSVKGRFIISSDNAKNTVDLQMNSLKPDDAAVYYCAVDRLGSRGAYVSSWWRSPDMDLWGKGTLVTVSS
notes: as for B1
B10: FJ1427_P035MP01E12 (VHH)
VHH: QVQLVESGGGLVQAGGSLRLSCAASGITFNDHTMAWFRQAPGKEREFVAARDWSDIITRYASSVKGRFTISRDNAGNTGFLQMNSLRPEDTAVYYCAAREGGVVAGVRSGAPYDYWGQGTQVTVSS
notes: periplasmic extract; also called clone nr; 93
B11: FJ1427_P035MP01G11 (VHH)
VHH: B10 VHH with Q118R
notes: periplasmic extract; also called clone nr; 87
B12: FJ1427_P035MP05B03 (VHH)
VHH: B10 VHH with V5Q, A14P
notes: as for B1
B13: FJ1427_P035MP05H02 (VHH)
VHH: B10 VHH with Q1E, S62G
notes: periplasmic extract; also called clone nr; 400
B14: FJ1427_P035MP05H01 (VHH)
VHH: B10 VHH with Q1E
notes: as for B1
B15: FJ1427_P035MP01F12 (VHH)
VHH: B10 VHH with Q1E, R19G, S126P
notes: periplasmic extract; also called clone nr; 94
B16: FJ1427_P035MP07F01 (VHH)
VHH: QVQLVESGGGLVQAGGSLRLSCAASGRTLSRYAMGWFRQAPGKEREFVTANSWGGDTYYADSVQGRFTFSRDNAKNTVYLQMNSLQPEDTAVYYCAAAPTSFATTAYSSSNSYAYWGQGTQVTVSS
notes: tested as periplasmic extract; also called Clone nr
B17: FJ1427_P035MP07F03 (VHH)
VHH: B16 VHH with A14T
notes: as for B16
B18: FJ1427_P035MP07A04 (VHH)
VHH: B16 VHH with A40G, T49A, N51D, A60D, Q64E, N73I, A74T, T77A
notes: as for B16
B19: FJ1427_P035MP07E07 (VHH)
VHH: B16 VHH with Q1E, K43S, T49A, N51S, Y58F, Q64E, T77A, V92A, A103P
notes: as for B16
B20: FJ1427_P035MP07A10 (VHH)
VHH: B16 VHH with K43S, T49A, N51S, Y58F, Q64E, T77A, V92A, A103P
notes: as for B16
B21: FJ1427_P035MP07H09 (VHH)
VHH: B16 VHH with T49A, A60T, Q64E, T77A, A114T
notes: as for B16
B22: FJ1427_P035MP07D04 (VHH)
VHH: B16 VHH with Q1E, A40G, T49A, N51D, A60D, Q64E, N73I, A74T, T77A
notes: as for B16
B23: FJ1427_P035MP07F08 (VHH)
VHH: B16 VHH with Y32D, T49A, N51D, Y58F, Q64E, T77A, A97G, A114R
notes: tested as periplasmic extract; also called Clone nr; 638
B24: FJ1427_P035MP07B01 (VHH)
VHH: B16 VHH with S70T
notes: as for B16
B25: FJ1427_P035MP07G09 (VHH)
VHH: QVQLQESGGGLVQAGGSLRLSCAASGRTLSRVAMGWFRQAPGKEREFVAADSWGGDTFYADSVEGRFTFSRDNAKNAVYLQMNSLQPEDTAVYFCAGAPASFATTAYSSSNSYSYWGQGTQVTVSS
notes: tested as periplasmic extract; also called Clone nr; 647
B26: FJ1427_P035MP07C04 (VHH)
VHH: B16 VHH with L11V
notes: as for B16
B27: FJ1427_P035MP07A01 (VHH)
VHH: B16 VHH with Q1E, G16D
notes: as for B16
B28: FJ1427_P035MP04F12 (VHH)
VHH: QVQLQESGGGWVQVGESLRLSCVPSGRTFVSGIMGWFRQAPGKEREFVARIILNNNSTRYTDSVKGRFTISRDSAKNTMYLQMNTLRPEDTAVYYCAARDRYGSGNSLSPSAYDYWGQGTQVTVSS
notes: as for B16
B29: FJ1427_P035MP07C02 (VHH)
VHH: B28 VHH with Q1E, Q5V, V23A, A40T
notes: tested as periplasmic extract; also called Clone nr; 587

The target in one experiment is T1, human IL-2Rα (human, UniProt P01589 22-240, limits assumed).
T1 construct: recombinant protein; also called hu IL-2R; human IL-2Ra
T1 sequence: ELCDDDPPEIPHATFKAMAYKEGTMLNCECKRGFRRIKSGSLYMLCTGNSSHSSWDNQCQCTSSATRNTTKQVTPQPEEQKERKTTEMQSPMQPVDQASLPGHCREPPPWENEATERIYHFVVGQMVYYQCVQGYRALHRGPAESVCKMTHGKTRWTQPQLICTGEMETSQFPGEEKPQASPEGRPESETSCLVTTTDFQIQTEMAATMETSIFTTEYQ
In words: ELISA, P.E. on coated antigen. Here is the method: (§1) In a binding ELISA, human or mouse IL-2Rα, IL-2Rβ and IL-2Rγ proteins were coated directly on maxisorp microtiter plates overnight at 4° C. Free binding sites were blocked using 4% Marvel in PBS for 1 hour. Next, 1:5 dilution of P.E. in 1% Marvel/PBS were added to wells and incubated for 1 hour. […] Binding specificity was determined based on O.D. at 450 nm values compared to negative controls.
As for B1, the “OD (PE binding ELISA)” value stood at 2.35 OD450 nm.
Take B2: the “OD (PE binding ELISA)” value was found to be 1.73 OD450 nm.
Turning to B3, the “OD (PE binding ELISA)” value stood at 2.43 OD450 nm.
As to B4, the “OD (PE binding ELISA)” value is 1.83 OD450 nm.
For the molecule B5, the “OD (PE binding ELISA)” value was found to be 2.48 OD450 nm.
For the molecule B6, the “OD (PE binding ELISA)” value was 2.76 OD450 nm.
In the case of B7, the “OD (PE binding ELISA)” value came to 2.33 OD450 nm.
Turning to B8, the “OD (PE binding ELISA)” value was 2.54 OD450 nm.
Take B9: the “OD (PE binding ELISA)” value is 1.77 OD450 nm.
As for B10, the “OD (PE binding ELISA)” value amounted to 2.69 OD450 nm.
For the molecule B11, the “OD (PE binding ELISA)” value is 2.73 OD450 nm.
Still for that read-out and setting: for B12 the value was 2.42 OD450 nm; for B13, 2.29 OD450 nm; for B14, 2.62 OD450 nm.
Turning to B15, the “OD (PE binding ELISA)” value was 2.67 OD450 nm.

Another experiment deals with T1, human IL-2Rα. In words: SPR, P.E. on immobilised antigen. Here is the method:
(§2) SPR was performed to determine dissociation rates using Biacore 3000 instrument (GE Healthcare). Briefly, human and mouse IL-2R proteins were immobilized on carboxylmethyl dextran sensor chip (CM5) at approximately 2500 RUs using amine coupling in acetate buffer (GE Healthcare). The VHH-containing P.E. were loaded with a flow rate of 30 uL/min and the off-rates were measured over a 120s period.
Background: In SPR one partner is held on a chip, and binding of the other changes the refractive index at the surface.
Consider B1, for which the off-rate (koff) (as a rule, the first-order rate constant of dissociation) stood at 0.001 s⁻¹.
On the same count and under the same terms, for B2 the value was 0.00141 s⁻¹.
Regarding B3, the koff was 0.00104 s⁻¹.
B4: the off-rate constant (koff) was 0.000905 s⁻¹.
In turn, B5 yielded a dissociation rate constant (koff) of 0.000772 s⁻¹.
The molecule B6 displayed an off-rate (koff) of 0.00067 s⁻¹.
Molecule B7 displayed a koff of 0.000214 s⁻¹.
On to B8, for which the dissociation rate constant (koff) is 0.000662 s⁻¹.
Take B9: the dissociation rate constant (koff) is 0.00195 s⁻¹. Compared with the last molecule, the koff is about 2.9-fold higher.
In the case of B10, the koff was 0.000141 s⁻¹.
B11 returned a koff of 0.000123 s⁻¹.
In turn, B12 returned a dissociation rate constant (koff) of 0.000131 s⁻¹.
The same measure, in the same setting: the value for B13 was 0.000141 s⁻¹.
Regarding B14, the off-rate constant (koff) amounted to 0.000141 s⁻¹.
The molecule B15 yielded an off-rate (koff) of 0.00011 s⁻¹.

The target of another experiment is T2, mouse common cytokine receptor γ-chain (IL-2Rγ) (mouse, UniProt P34902 23-263, limits assumed).
T2 construct: Recombinant mouse IL-2Rγ protein; also called mo IL-2R; mouse IL-2R gamma
T2 sequence (looked up): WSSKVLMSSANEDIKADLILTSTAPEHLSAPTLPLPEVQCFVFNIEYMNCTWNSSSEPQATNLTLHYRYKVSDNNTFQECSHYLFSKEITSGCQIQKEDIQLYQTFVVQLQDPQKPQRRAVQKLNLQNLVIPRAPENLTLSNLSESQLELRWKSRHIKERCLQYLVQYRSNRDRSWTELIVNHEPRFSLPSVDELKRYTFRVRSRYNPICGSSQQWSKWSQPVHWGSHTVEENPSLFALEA
Kind of experiment: P.E. binding ELISA. The procedure: as §1
For B16, the “PE binding ELISA OD” value worked out at 0.047 OD450 nm.

The target in the next experiment is T3, human common cytokine receptor γ-chain (IL-2Rγ) (human, UniProt P31785 23-262, limits assumed).
T3 construct: Recombinant human IL-2Rγ protein, coated (ELISA) or amine-coupled to a CM5 chip (SPR); also called hu IL-2R; CD132
T3 sequence: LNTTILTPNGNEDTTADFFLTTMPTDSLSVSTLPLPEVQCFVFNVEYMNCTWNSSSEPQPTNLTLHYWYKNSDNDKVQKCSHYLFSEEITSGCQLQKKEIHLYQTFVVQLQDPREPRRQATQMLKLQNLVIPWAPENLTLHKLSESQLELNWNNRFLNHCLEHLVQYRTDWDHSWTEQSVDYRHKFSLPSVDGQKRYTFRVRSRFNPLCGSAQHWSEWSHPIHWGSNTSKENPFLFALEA
In words: P.E. binding ELISA. Here is the method:
as §1
(An ELISA detects its analyte on a solid surface through an enzyme-linked reagent.)
For B16, the “PE binding ELISA OD” value amounted to 0.556 OD450 nm.
On to B17, for which the “PE binding ELISA OD” value amounted to 0.497 OD450 nm.
Consider B18, for which the “PE binding ELISA OD” value came out at 0.507 OD450 nm.
Still for that read-out and setting: the value for B19 was 0.359 OD450 nm; that for B20 was 0.759 OD450 nm; that for B21 was 1.11 OD450 nm.
As for B22, the “PE binding ELISA OD” value stood at 0.792 OD450 nm.
For B23, the “PE binding ELISA OD” value is 1.24 OD450 nm.
Still for that read-out and setting: the value for B24 was 0.518 OD450 nm.
For the molecule B25, the “PE binding ELISA OD” value stood at 1.14 OD450 nm.
As for B26, the “PE binding ELISA OD” value was 0.406 OD450 nm.
Regarding B27, the “PE binding ELISA OD” value came out at 0.478 OD450 nm.
Take B28: the “PE binding ELISA OD” value worked out at 2.02 OD450 nm.
As for B29, the “PE binding ELISA OD” value was found to be 0.48 OD450 nm.

Another experiment has as its target T2, mouse common cytokine receptor γ-chain …. Kind of experiment: P.E. off-rate SPR. Here is the method: as §2
For B16, the koff was determined as 0.0855 s⁻¹.

In a further experiment the target is T3, human common cytokine receptor γ-chain …. Kind of experiment: P.E. off-rate SPR. Here is the method: as §2
On to B16, for which the koff is 0.00297 s⁻¹.
Consider B17, for which the koff turned out to be 0.00321 s⁻¹. This koff and that of the molecule before are within 1.5-fold of each other.
The molecule B18 had an off-rate constant (koff) of 0.00126 s⁻¹.
The molecule B19 showed a koff of 0.00225 s⁻¹.
On to B20, for which the dissociation rate constant (koff) was 0.00242 s⁻¹.
The molecule B21 returned a koff of 0.00346 s⁻¹.
Molecule B22 showed a koff of 0.00243 s⁻¹.
Turning to B23, the koff came to 0.00185 s⁻¹.
In the case of B24, the dissociation rate constant (koff) is 0.00235 s⁻¹.
B25: the off-rate constant (koff) came out at 0.0024 s⁻¹.
Consider B26, for which the off-rate (koff) came out at 0.00267 s⁻¹.
Consider B27, for which the off-rate (koff) was 0.00151 s⁻¹. This koff lies about 1.8-fold lower than the previous one.
Take B28: the off-rate (koff) is 0.00714 s⁻¹.
In turn, B29 came in with an off-rate (koff) of 0.0186 s⁻¹.
